Measured values as given in patent US20060257938A1, “Method of screening for drugs that block ligand binding to a lipid binding protein” (priority 2005, published 2006).

Columns and labels:
Format in all cases: binding
[1] = Probe fluorescence ratio response to linoleic acid relative to ADIFAB2; details: response relative to ADIFAB2
How it was run: (§1)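 Fluorescently labeled rat intestinal FABP variants were read at two emission wavelengths, near the unbound maximum (about 420 to 480 nm) and the FFA-bound maximum (about 495 to 580 nm). R = Fλ1/Fλ2 after subtracting probe-free intensity; ΔR = R+agent − R0, normalized to ADIFAB2 (rI-FABP-L72A).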

[2] = Probe fluorescence ratio response to palmitic acid relative to ADIFAB2; details: response relative to ADIFAB2
How it was run: as §1

[3] = Probe fluorescence ratio response to linolenic acid relative to ADIFAB2; details: response relative to ADIFAB2
How it was run: as §1

[4] = Probe fluorescence ratio response to arachidonic acid relative to ADIFAB2; details: arachidonic acid; response relative to ADIFAB2
How it was run: as §1

[5] = Probe fluorescence ratio response to oleic acid relative to ADIFAB2; details: response relative to ADIFAB2
How it was run: as §1

| Molecule | DR/DR LA [1] | DR/DR PA [2] | DR/DR LNA [3] | DR/DR AA [4] | DR/DR OA [5] |
| --- | --- | --- | --- | --- | --- |
| 14I 72A (protein, listed as Rattus norvegicus, PEPTIDE (1)...(131) wild-type rat intestinal fatty acid binding protein) AFDGTWKVDRNENIEKFMEKMGINVVKRKLGAHDNLKLTITQEGNKFTVKESSNFRNIDVVFELGVDFAYSAADGTELTGTWTMEGNKLVGKFKRVDNGKELIAVREISGNELIQTYTYEGVEAKRIFKKE | 0.944 | 0.762 | 0.997 | 0.825 | 0.478 |
| 14L 72A (protein, listed as Rattus norvegicus, PEPTIDE (1)...(131) wild-type rat intestinal fatty acid binding protein) AFDGTWKVDRNENLEKFMEKMGINVVKRKLGAHDNLKLTITQEGNKFTVKESSNFRNIDVVFELGVDFAYSAADGTELTGTWTMEGNKLVGKFKRVDNGKELIAVREISGNELIQTYTYEGVEAKRIFKKE | 0.766 | 0.534 | 0.867 | 0.838 | 0.446 |
| 106D, 72A (protein, listed as Rattus norvegicus, PEPTIDE (1)...(131) wild-type rat intestinal fatty acid binding protein) AFDGTWKVDRNENYEKFMEKMGINVVKRKLGAHDNLKLTITQEGNKFTVKESSNFRNIDVVFELGVDFAYSAADGTELTGTWTMEGNKLVGKFKRVDNGKELIAVDEISGNELIQTYTYEGVEAKRIFKKE | 0.584 | 0.147 | 0.591 | 0.502 | 0.423 |
| 78A, 72A (protein, listed as Rattus norvegicus, PEPTIDE (1)...(131) wild-type rat intestinal fatty acid binding protein) AFDGTWKVDRNENYEKFMEKMGINVVKRKLGAHDNLKLTITQEGNKFTVKESSNFRNIDVVFELGVDFAYSAADGTEATGTWTMEGNKLVGKFKRVDNGKELIAVREISGNELIQTYTYEGVEAKRIFKKE | 0.372 | 0.190 | 0.429 | 0.433 | 0.350 |
| 14I 72G 117V (protein, listed as Rattus norvegicus, PEPTIDE (1)...(131) wild-type rat intestinal fatty acid binding protein) AFDGTWKVDRNENIEKFMEKMGINVVKRKLGAHDNLKLTITQEGNKFTVKESSNFRNIDVVFELGVDFAYSGADGTELTGTWTMEGNKLVGKFKRVDNGKELIAVREISGNELIQTVTYEGVEAKRIFKKE | 0.622 | 0.085 | 0.547 | 0.928 | 0.337 |
| 49N, 72A (protein, listed as Rattus norvegicus, PEPTIDE (1)...(131) wild-type rat intestinal fatty acid binding protein) AFDGTWKVDRNENYEKFMEKMGINVVKRKLGAHDNLKLTITQEGNKFTNKESSNFRNIDVVFELGVDFAYSAADGTELTGTWTMEGNKLVGKFKRVDNGKELIAVREISGNELIQTYTYEGVEAKRIFKKE | 1.099 | 0.740 | 1.181 | 1.255 | 1.108 |
| 106M, 72A (protein, listed as Rattus norvegicus, PEPTIDE (1)...(131) wild-type rat intestinal fatty acid binding protein) AFDGTWKVDRNENYEKFMEKMGINVVKRKLGAHDNLKLTITQEGNKFTVKESSNFRNIDVVFELGVDFAYSAADGTELTGTWTMEGNKLVGKFKRVDNGKELIAVMEISGNELIQTYTYEGVEAKRIFKKE | 0.485 | 0.183 | 0.490 | 0.554 | 0.510 |
| 21I, 72A (protein, listed as Rattus norvegicus, PEPTIDE (1)...(131) wild-type rat intestinal fatty acid binding protein) AFDGTWKVDRNENYEKFMEKIGINVVKRKLGAHDNLKLTITQEGNKFTVKESSNFRNIDVVFELGVDFAYSAADGTELTGTWTMEGNKLVGKFKRVDNGKELIAVREISGNELIQTYTYEGVEAKRIFKKE | 0.365 | 0.162 | 0.412 | 0.531 | 0.310 |
| 14L 72G 117V (protein, listed as Rattus norvegicus, PEPTIDE (1)...(131) wild-type rat intestinal fatty acid binding protein) AFDGTWKVDRNENLEKFMEKMGINVVKRKLGAHDNLKLTITQEGNKFTVKESSNFRNIDVVFELGVDFAYSGADGTELTGTWTMEGNKLVGKFKRVDNGKELIAVREISGNELIQTVTYEGVEAKRIFKKE | 0.548 | 0.055 | 0.513 | 0.873 | 0.297 |
| 78Y, 72A (protein, listed as Rattus norvegicus, PEPTIDE (1)...(131) wild-type rat intestinal fatty acid binding protein) AFDGTWKVDRNENYEKFMEKMGINVVKRKLGAHDNLKLTITQEGNKFTVKESSNFRNIDVVFELGVDFAYSAADGTEYTGTWTMEGNKLVGKFKRVDNGKELIAVREISGNELIQTYTYEGVEAKRIFKKE | 0.908 | 0.520 | 0.871 | 1.172 | 0.845 |
| 82F, 72A (protein, listed as Rattus norvegicus, PEPTIDE (1)...(131) wild-type rat intestinal fatty acid binding protein) AFDGTWKVDRNENYEKFMEKMGINVVKRKLGAHDNLKLTITQEGNKFTVKESSNFRNIDVVFELGVDFAYSAADGTELTGTFTMEGNKLVGKFKRVDNGKELIAVREISGNELIQTYTYEGVEAKRIFKKE | 0.422 | 0.223 | 0.334 | 1.029 | 0.403 |
| 14L 72G 117I (protein, listed as Rattus norvegicus, PEPTIDE (1)...(131) wild-type rat intestinal fatty acid binding protein) AFDGTWKVDRNENLEKFMEKMGINVVKRKLGAHDNLKLTITQEGNKFTVKESSNFRNIDVVFELGVDFAYSGADGTELTGTWTMEGNKLVGKFKRVDNGKELIAVREISGNELIQTITYEGVEAKRIFKKE | 0.764 | 0.231 | 0.812 | 0.787 | 0.395 |
| 11W, 72A (protein, listed as Rattus norvegicus, PEPTIDE (1)...(131) wild-type rat intestinal fatty acid binding protein) AFDGTWKVDRWENYEKFMEKMGINVVKRKLGAHDNLKLTITQEGNKFTVKESSNFRNIDVVFELGVDFAYSAADGTELTGTWTMEGNKLVGKFKRVDNGKELIAVREISGNELIQTYTYEGVEAKRIFKKE | 0.344 | 0.199 | 0.357 | 0.430 | 0.227 |
| 14L 38M 72A 117F (protein, listed as Rattus norvegicus, PEPTIDE (1)...(131) wild-type rat intestinal fatty acid binding protein) AFDGTWKVDRNENLEKFMEKMGINVVKRKLGAHDNLKMTITQEGNKFTVKESSNFRNIDVVFELGVDFAYSAADGTELTGTWTMEGNKLVGKFKRVDNGKELIAVREISGNELIQTFTYEGVEAKRIFKKE | 0.830 | 0.472 | 0.921 | 0.861 | 0.458 |
| 55Y, 72A (protein, listed as Rattus norvegicus, PEPTIDE (1)...(131) wild-type rat intestinal fatty acid binding protein) AFDGTWKVDRNENYEKFMEKMGINVVKRKLGAHDNLKLTITQEGNKFTVKESSNYRNIDVVFELGVDFAYSAADGTELTGTWTMEGNKLVGKFKRVDNGKELIAVREISGNELIQTYTYEGVEAKRIFKKE | 0.324 | 0.249 | 0.335 | 0.471 | 0.329 |
| 11I, 72A (protein, listed as Rattus norvegicus, PEPTIDE (1)...(131) wild-type rat intestinal fatty acid binding protein) AFDGTWKVDRIENYEKFMEKMGINVVKRKLGAHDNLKLTITQEGNKFTVKESSNFRNIDVVFELGVDFAYSAADGTELTGTWTMEGNKLVGKFKRVDNGKELIAVREISGNELIQTYTYEGVEAKRIFKKE | 0.546 | 1.186 | 0.507 | 0.584 | 0.387 |
| 23L, 72A (protein, listed as Rattus norvegicus, PEPTIDE (1)...(131) wild-type rat intestinal fatty acid binding protein) AFDGTWKVDRNENYEKFMEKMGLNVVKRKLGAHDNLKLTITQEGNKFTVKESSNFRNIDVVFELGVDFAYSAADGTELTGTWTMEGNKLVGKFKRVDNGKELIAVREISGNELIQTYTYEGVEAKRIFKKE | 1.041 | 0.928 | 1.025 | 1.174 | 1.057 |
